Laboratory results taken from patent US11807873B2, “Conversion of S-lignin compounds to useful intermediates” (Alliance for Sustainable Energy, LLC, priority 2020, dated 2023).

Assays:
Test in all cases: purified protein, by the assay type
Conditions in all cases: other: 2 μM Ht-VanB, 400 μM NADH, air-saturated HEPES (I = 0.1M), pH 7.5, 25° C, VanA 0.4 μM for vanillate, 1 μM for syringate and 3MGA
[1] = substrate: COc1cc(C(=O)O)cc(OC)c1O
[2] = substrate: COc1cc(C(=O)O)ccc1O
Protocol: (§1) In evaluating the parameters for VA, 0.4 μM VanA was used to ensure steady-state conditions at low concentrations of VA.
(§2) Steady-state kinetic analyses: Kinetic assays were performed by monitoring the consumption of O2 using a Clark-type polarographic O2 electrode OXYG1 (Hansatech) connected to a circulating water bath. Assays with the exception of GalA were performed in 1 mL of air-saturated 40 mM HEPES, 80 mM NaCl (I=0.1 M, pH 7.5) at 25° C. GalA assays were performed in 40 mM MOPS, 80 mM NaCl (I=0.1 M, pH 7.0) at 30° C. The electrode was calibrated daily according to the manufacturer's instructions using air-saturated buffer and water depleted of 02 via addition of sodium hydrosulfite. Stock solutions were prepared fresh daily. The background rate of O2-consumption was recorded prior to initiating the reaction and was subtracted from the measured reaction rate. Steady-state kinetic parameters were evaluated by fitting the Michaelis-Menten equation to the data using the least-squares fitting of LEONORA.
(§3) For VanAB, the standard reaction contained 1 μM VanA, 2 μM Ht-VanB, and 400 μM NADH. […] Stock solutions of the substrates were made in dimethylsulfoxide (DMSO). The final concentration of DMSO in the assay solutions was <1% (v/v). For PcaHG, the standard reaction contained 250 μM PCA. The reaction was initiated by adding 0.1 μM PcaHG. […] The reaction was initiated by adding 0.05 μM GalA.

[3] = substrate: COc1cc(C(=O)O)cc(O)c1O
Protocol: as §1, §2, §3

B1: VanAB (vanillate O-demethylase) (Pseudomonas putida KT2440) (protein)
chain: MYPKNTWYVACTPDEIATKPLGRQICGEKIVFYRARENQVAAVEDFCPHRGAPLSLGYVEDGNLVCGYHGLVMGCDGKTVSMPGQRVRGFPCNKTFAAVERYGFIWVWPGDQAQADPALIPHLEWAVSDEWAYGGGLFHIGCDYRLMIDNLMDLTHETYVHASSIGQKEIDEAPPVTTVTGDEVVTARHMENIMAPPFWRMALRGNGLADDVPVDRWQICRFTPPSHVLIEVGVAHAGKGGYHAEAQHKASSIVVDFITPESDTSIWYFWGMARNFAAHDQTLTDNIREGQGKIFSEDLEMLERQQQNLLAHPERNLLKLNIDAGGVQSRKVLERIIAQERAPQPQLIATSANPAGKLP
Question: Which Km [1] does the source give for B1 here?
Answer: 16 ± 2 µM

Question: And the kcat [1]?
Answer: 0.89 ± 0.03 s⁻¹

Question: What about the kcat/Km [1] of the same protein?
Answer: 5.5 ± 0.6 ×10^4 s^−1 · M^−1

Question: What about the Km [2] of the same protein?
Answer: 4 ± 1 µM

Question: What about the Km [3] of the same protein?
Answer: 150 ± 20 µM

Question: And the kcat [3]?
Answer: 0.53 ± 0.02 s⁻¹

Question: What about the kcat/Km [3] of the same protein?
Answer: 0.36 ± 0.04 ×10^4 s^−1 · M^−1
